Experimental data taken from publication PMC11670252, “Antibody-mediated clearance of an ER-resident aggregate that causes glaucoma” (PNAS Nexus, 2024).

Molecular target: T1, endogenous full-length myocilin from conditioned media of primary human TM cells (Homo sapiens, UniProt Q99972)
T1 construct: myocilin, human, endogenous, secreted into the medium; called full-length (~55 kDa); also called endogenous full-length myocilin (~55 kDa)
Test: immunoprecipitation; antibodies incubated with 15 mL conditioned medium of primary human TM cells without enrichment, or HBS buffer as control; myocilin found by Western blot
Details: one partner purified

T1 sequence (Q99972 33-504): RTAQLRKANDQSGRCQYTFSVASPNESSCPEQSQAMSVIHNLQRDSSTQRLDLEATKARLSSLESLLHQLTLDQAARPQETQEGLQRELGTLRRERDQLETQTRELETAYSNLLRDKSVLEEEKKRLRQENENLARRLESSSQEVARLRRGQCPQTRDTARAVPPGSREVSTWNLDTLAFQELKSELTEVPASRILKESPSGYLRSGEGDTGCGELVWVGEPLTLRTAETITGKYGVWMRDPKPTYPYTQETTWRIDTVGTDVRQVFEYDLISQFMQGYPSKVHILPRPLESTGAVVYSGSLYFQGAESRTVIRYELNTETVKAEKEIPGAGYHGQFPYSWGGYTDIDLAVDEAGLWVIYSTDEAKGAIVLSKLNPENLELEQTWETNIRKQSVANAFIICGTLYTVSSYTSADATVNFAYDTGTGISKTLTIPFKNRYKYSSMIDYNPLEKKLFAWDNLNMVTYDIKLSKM

binding result: binds
B1: anti-OLF1 chimeric IgG (murine variable domains, human IgG1/kappa constant domains) (antibody, V domains shown)
VH: QVQLQQSGPELVKPGASVKISCKTSGYTFTENTMHWVRQSHGKSLEWIGGIHPNNIGSTYNQKFKGKATLTVDKSSSTAYMELRSLTSEDSAVYYCTRGATAPFAYWGQGTLVTVSA
VL: DIVMTQTPLSLPVSLGDQASISCRSSQSIVHSNGNTYLHWYQQKSGQSPKLLIYKVSNRFSGVPDRFSGSGSGTDFTLKISRVEAEDLGVYFCSQSTHVPPTFGGGTKLEIK
